{"source": "patent US20040121386", "key": {"[1]": {"target": "unactive JNK1 (Upstate, Inc.)"}}, "data": [{"protein": "His-tagged MKK7γ1 (protein) AASSLEQKLSRLEAKLKQENREARRRIDLNLDISPQRPRPIIVITLSPAPAPSQRAALQLPLANDGGSRSPSSESSPQHPTPPARPRHMLGLPSTLFTPRSMESIEIDQKLQEIMKQTGYPTIGGQRYQAEINDLENLGEMGSGTCGQVWKMRFRKTGHVIAVKQMRRSGNKEENKRILMDLDVVLKSHDCPYIVQCFGTFITNTDVFIAMELMGTCAEKLKKRMQGPIPERILGKMTVAIVKALYYLKEKHGVIHRDVKPSNILLDERGQIKLCDFGISGRLVDSKAKTRSAGCAAYMAPERIDPPDPTKPDYDIRADVWSLGISLVELATGQFPYKNCKTDFEVLTKVLQEEPPLLPGHMGFSGDFQSFVKDCLTKDHRKRPKYNKLLEHSFIKRYETLEVDVASWFKDVMAKTESPRTSGVLSQPHLPFFR", "values": [{"measurement": "phosphorylation in a two-step cascade kinase assay (γ-32P-ATP, SDS/PAGE, autoradiography)", "setting": "[1]", "value": "in turn was able to phosphorylate JNK1"}, {"measurement": "phosphorylation in a two-step cascade kinase assay (γ-32P-ATP, SDS/PAGE, autoradiography)", "setting": "unactive p38", "value": "MKK7γ1 was unable to phosphorylate p38"}]}]}
